Results on 28 molecules are retold here after patent publication US20070185028A1 (published 2007).

For assay [1], the target named is T1, Human γD crystallin (human, UniProt P07320 2-174, limits assumed).
T1 construct: Used unheated (23° C) and pre-heated (45° C, 15 min)
T1 sequence (looked up): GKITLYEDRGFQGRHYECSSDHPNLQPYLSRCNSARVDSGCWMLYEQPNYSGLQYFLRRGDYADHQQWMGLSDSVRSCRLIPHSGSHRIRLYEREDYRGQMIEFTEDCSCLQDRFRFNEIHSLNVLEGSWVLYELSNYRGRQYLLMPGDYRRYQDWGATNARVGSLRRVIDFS
The experiment in a line: protein pin array ELISA, A450; listed as peak peptide with unheated and pre-heated target. (In general: In an ELISA, binding on a coated surface is turned into a signal by an enzyme label.)

In assay [2] the target is Bovine βH crystallin (bovine). The experiment in a line: cell-based or functional assay.
Assay [3] has as its target Equine Alcohol dehydrogenase (equine, UniProt P00327 2-375). Briefly: cell-based or functional assay.
Assay [4] deals with Amyloid-beta (1-42) (UniProt P05067). The experiment in a line: cell-based or functional assay.
Assay [5] has as its target transthyretin (UniProt P02766 21-147). Briefly: cell-based or functional assay.
Assay [6] concerns the target beta amyloid (UniProt P05067 672-713, limits assumed). The experiment in a line: cell-based or functional assay.
Assay [7] addresses T1, Human γD crystallin. Briefly: cell-based or functional assay.
In assay [8] the target is T2, Porcine Citrate synthase (porcine, UniProt P00889 28-464).
T2 construct: also called CS
T2 sequence (looked up): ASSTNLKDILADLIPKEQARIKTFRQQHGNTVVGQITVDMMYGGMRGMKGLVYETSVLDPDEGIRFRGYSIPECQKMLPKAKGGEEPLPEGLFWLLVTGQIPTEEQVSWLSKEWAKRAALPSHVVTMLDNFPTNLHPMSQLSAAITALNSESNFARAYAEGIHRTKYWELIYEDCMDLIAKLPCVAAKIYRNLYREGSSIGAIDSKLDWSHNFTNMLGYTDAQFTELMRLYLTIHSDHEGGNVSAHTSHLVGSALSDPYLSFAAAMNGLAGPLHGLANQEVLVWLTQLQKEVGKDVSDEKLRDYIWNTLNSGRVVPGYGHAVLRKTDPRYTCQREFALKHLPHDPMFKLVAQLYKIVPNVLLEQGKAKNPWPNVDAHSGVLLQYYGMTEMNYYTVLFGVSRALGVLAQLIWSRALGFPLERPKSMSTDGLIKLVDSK
Briefly: protein pin array ELISA, A450; listed as peak peptide with unheated and pre-heated target.

Assay [9] concerns the target β2-microglobulin (UniProt P61769 21-119). The experiment in a line: cell-based or functional assay.
Assay [10] addresses T2, Porcine Citrate synthase. Briefly: protein pin array.

No end group written: not given here.

Sequence of β2-microglobulin (P61769 21-119 limits assumed): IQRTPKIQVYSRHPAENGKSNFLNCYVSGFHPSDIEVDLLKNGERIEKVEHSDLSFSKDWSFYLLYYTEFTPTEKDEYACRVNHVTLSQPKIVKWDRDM
Sequence of Equine Alcohol dehydrogenase (P00327 2-375 limits assumed): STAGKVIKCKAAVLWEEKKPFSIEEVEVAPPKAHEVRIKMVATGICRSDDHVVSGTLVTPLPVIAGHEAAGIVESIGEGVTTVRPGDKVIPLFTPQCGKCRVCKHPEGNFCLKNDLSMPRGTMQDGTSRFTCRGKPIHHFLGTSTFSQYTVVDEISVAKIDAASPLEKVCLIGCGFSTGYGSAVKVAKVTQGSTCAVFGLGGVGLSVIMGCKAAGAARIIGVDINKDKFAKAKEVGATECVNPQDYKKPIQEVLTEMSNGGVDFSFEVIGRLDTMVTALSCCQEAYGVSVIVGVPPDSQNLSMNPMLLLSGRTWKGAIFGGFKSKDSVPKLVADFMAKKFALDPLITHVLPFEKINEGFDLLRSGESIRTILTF

B1: SFLRAPSW (peptide)
peptide: SFLRAPSW
notes: pin-immobilised 8-mer of human αB crystallin
As for B1, in [1], the binding result is “binds”.
Take LTITSSLSDGV: the “protection against thermal aggregation at 50° C, light scattering 340 nm, 50:1 peptide:target” value in [2] and in assay [3] was ~30 % protection in each case. Moreover, the “pH induced aggregation of amyloid-beta at pH 5.2, light scattering 360 nm (amyloid-beta alone = 100%)” value in [4] stood at 15 % aggregation.
As to HEER, the “TTR fibrillation, ThT fluorescence, 1:1 peptide:TTR (16 µM)” value (“TTR fibrillation, ThT fluorescence” for short) in assay [5] was ~100 % inhibition.
On to LTITSSLSSDGV, for which, in assay [6], the “Δfluorescence (Aβ), Thioflavin T, 72 h at 50° C (no chaperone: 1,324,974,048)” value (“Δfluorescence … (no chaperone: 1,324,974,048)” for short) came out at 3.52e+08. Moreover, the “Δfluorescence (γD crystallin), Thioflavin T, 72 h at 50° C (no chaperone: 888,803,840)” value (“Δfluorescence … (no chaperone: 888,803,840)” below) in [7] stood at 6.75e+08.

B2: EFHRKYRI (peptide)
peptide: EFHRKYRI
notes: as for B1
In the case of B2, the binding result in [1] is listed as “binds”.

B3: IAIHHPWI (peptide)
peptide: IAIHHPWI
notes: pin-immobilised 8-mer of human αB crystallin; also called peptide 2
Turning to B3, the binding result in assay [1] is given as “binds”.

B4: FISREFHR (peptide)
peptide: FISREFHR
notes: pin-immobilised 8-mer of human αB crystallin; also called peptide 57
On to B4, for which the binding result in assay [8] is given as “binds”.
STSLSPFYLRPPSFLRAP: the “Δfluorescence … (no chaperone: 1,324,974,048)” value in [6] came out at 4.78e+08. Besides, in [7], the “Δfluorescence … (no chaperone: 888,803,840)” value stood at 6.06e+08.
Turning to HGKHEERQ, in assay [5], the “TTR fibrillation, ThT fluorescence” value was ~100 % inhibition.

B5: LTVNGPRK (peptide)
peptide: LTVNGPRK
notes: pin-immobilised 8-mer of human αB crystallin; also called peptide 72
In the case of B5, in [8], the binding result is on record as “binds”.
For HGKHEERQDE, the “pH induced aggregation of amyloid-beta at pH 5.2, light scattering 360 nm (amyloid-beta alone = 100%)” value in assay [4] stood at 30 % aggregation. In addition, the “Δfluorescence … (no chaperone: 1,324,974,048)” value in assay [6] is 7.96e+08. In [7], the “Δfluorescence … (no chaperone: 888,803,840)” value is 7.34e+08.
DRFSVNLDVKHFS: the “protection against thermal aggregation at 50° C, light scattering 340 nm, 50:1 peptide:target” value in [2] and in [3] was ~30 % protection each time. For the same molecule, in [4], the “pH induced aggregation of amyloid-beta at pH 5.2, light scattering 360 nm (amyloid-beta alone = 100%)” value was found to be 4 % aggregation. Also, the “Δfluorescence … (no chaperone: 1,324,974,048)” value in assay [6] came to 2.64e+08. Further, the “Δfluorescence … (no chaperone: 888,803,840)” value in assay [7] was found to be 6.61e+08.

B6: FYLRPPSF (peptide)
peptide: FYLRPPSF
notes: pin-immobilised 8-mer of human αB crystallin; also called peptide 24
Turning to B6, the binding result in assay [1] and in assay [8] was “binds” throughout.
As to RQDE, in assay [9], the “β2m fibrillation, ThT fluorescence, 1:1 peptide:β2m (29 µM)” value (“β2m fibrillation, ThT fluorescence” for short) was ~100 % inhibition.

B7: WIRRPFFP (peptide)
peptide: WIRRPFFP
notes: pin-immobilised 8-mer of human αB crystallin; also called peptide 5
Consider B7, for which the binding result in assay [1] and in assay [8] was “binds” each time.

B8: FPFHSPSR (peptide)
peptide: FPFHSPSR
notes: pin-immobilised 8-mer of human αB crystallin; also called peptide 8
Regarding B8, the binding result in assay [8] was “binds”.

B9: RTIPITRE (peptide)
peptide: RTIPITRE
notes: pin-immobilised 8-mer of human αB crystallin; also called peptide 79
Consider B9, for which the binding result in assay [8] is “binds”.

B10: GVLTVNGP (peptide)
peptide: GVLTVNGP
modifications: also: covalently bound to polyethylene pin
notes: pin-immobilised 8-mer of human αB crystallin; also called β9
Turning to B10, the binding result in [10] and in assay [1] was “binds” throughout.

B11: PFFPFHSP (peptide)
peptide: PFFPFHSP
notes: pin-immobilised 8-mer of human αB crystallin; also called 13 PFFPFHSP20
Consider B11, for which, in assay [1], the binding result is reported as “binds”.
For the molecule ERTIPITRE, the “Δfluorescence … (no chaperone: 1,324,974,048)” value in assay [6] stood at 5.77e+08. The “Δfluorescence … (no chaperone: 888,803,840)” value in assay [7] is 6.11e+08.
As to EERQ, the “β2m fibrillation, ThT fluorescence” value in [9] is ~100 % inhibition.

B12: SLSPFYLR (peptide)
peptide: SLSPFYLR
notes: pin-immobilised 8-mer of human αB crystallin; also called peptide 22
For B12, the binding result in assay [1] and in assay [8] was “binds” each time.

B13: LRAPSWFD (peptide)
peptide: LRAPSWFD
notes: pin-immobilised 8-mer of human αB crystallin; also called peptide 28
B13: the binding result in assay [8] is “binds”.

B14: HGFISREF (peptide)
peptide: HGFISREF
notes: pin-immobilised 8-mer of human αB crystallin; also called peptide 56
Consider B14, for which, in assay [1], the binding result is “binds”.

B15: FSVNLDVK (peptide)
peptide: FSVNLDVK
modifications: also: covalently bound to polyethylene pin
notes: pin-immobilised 8-mer of human αB crystallin; also called β3
Consider B15, for which the binding result in assay [1] and in assay [8] was “binds” throughout.

B16: LTITSSLS (peptide)
peptide: LTITSSLS
modifications: also: covalently bound to polyethylene pin
notes: pin-immobilised 8-mer of human αB crystallin; also called β8
With B16, the binding result in [1] and in assay [8] was “binds” in each case.

B17: DQFFGEHL (peptide)
peptide: DQFFGEHL
notes: pin-immobilised 8-mer of human αB crystallin; also called peptide 13
As to B17, the binding result in assay [1] is listed as “binds”.
As to EERQDE, the “TTR fibrillation, ThT fluorescence” value in assay [5] is ~100 % inhibition. The “β2m fibrillation, ThT fluorescence” value in [9] is ~100 % inhibition.
